# Test results from paper PMC4609964, “Combination of six enzymes of a marine Novosphingobium converts the stereoisomers of β-O-4 lignin model dimers into the respective monomers” (Scientific Reports, 2015).
# T1: GST3 (Novosphingobium sp. MBES04, UniProt A0A0S6WZT0)
# T1 construct: gene MBENS4_2527; N-terminal His6 tag (pRSET A), E. coli BL21(DE3), His-tag resin purified
# T1 sequence (A0A0S6WZT0 1-226): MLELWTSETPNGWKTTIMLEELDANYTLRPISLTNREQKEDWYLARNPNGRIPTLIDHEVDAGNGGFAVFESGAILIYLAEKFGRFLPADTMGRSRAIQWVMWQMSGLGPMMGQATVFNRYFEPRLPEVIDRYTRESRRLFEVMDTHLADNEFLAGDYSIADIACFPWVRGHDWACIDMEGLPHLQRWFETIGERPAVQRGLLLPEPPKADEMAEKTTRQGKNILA
# T2: GST6 (Novosphingobium sp. MBES04, UniProt A0A0S6WVQ1)
# T2 construct: gene MBENS4_2530; N-terminal His6 tag (pRSET A), E. coli BL21(DE3), His-tag resin purified
# T2 sequence (A0A0S6WVQ1 1-283): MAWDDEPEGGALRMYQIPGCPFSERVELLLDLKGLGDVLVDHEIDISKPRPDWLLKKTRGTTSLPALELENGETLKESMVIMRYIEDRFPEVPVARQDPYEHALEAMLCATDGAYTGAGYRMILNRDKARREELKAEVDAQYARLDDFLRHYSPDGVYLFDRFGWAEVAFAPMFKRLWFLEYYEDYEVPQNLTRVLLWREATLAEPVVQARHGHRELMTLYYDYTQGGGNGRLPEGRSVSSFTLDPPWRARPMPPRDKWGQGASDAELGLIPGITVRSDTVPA
# Legend:
# GST3 [1] = biological target: T1, GST3; test: conventional GST assay (specific activity); type: biochemical; settings: glutathione co-substrate
# GST3 [2] = biological target: T1, GST3; test: chiral HPLC of glutathione removal to GHP; type: biochemical; settings: glutathione 2.0 mM; 25 °C, 16 h; both conjugates (formed by GST4 and by GST5)
# GST6 = biological target: T2, GST6; test: chiral HPLC of glutathione removal to GHP; type: biochemical; settings: […] °C, […] h, both conjugates (formed by GST4 and by GST5)
# [3] = tested on: COc1cc(C(=O)C(CO)Oc2ccccc2OC)ccc1O; test: purified protein; settings: GSH co-substrate, optimal pH 7−8, 40 °C, 1:1 β(R)/β(S) mixture (acts on β(R))
# [4] = tested on: COc1ccc(C(=O)C(CO)Oc2ccccc2OC)cc1OC; test: purified protein; settings: GSH co-substrate, optimal pH 7−8, 40 °C (determined with MPHPV)
# [5] = tested on: COc1ccc(C(O)C(CO)Oc2ccccc2OC)cc1OC; test: purified protein; settings: NAD cofactor
# purified protein [6] = substrate: COc1ccc(C(=O)C(CO)Oc2ccccc2OC)cc1OC; test: purified protein; type: biochemical, Novosphingobium sp. MBES04; settings: GSH co-substrate, optimal pH 9, 35 °C (determined with MPHPV)
# purified protein [7] = substrate: COc1cc(C(=O)C(CO)Oc2ccccc2OC)ccc1O; test: purified protein; type: biochemical, Novosphingobium sp. MBES04; settings: GSH co-substrate, optimal pH 9, 35 °C, 1:1 β(R)/β(S) mixture (acts on β(S))
# [8] = optimal conditions (pH 9, 15 °C)
# [9] = optimal conditions (pH 9–10, 30 °C)
molecule,measurement,setting,value
O=[N+]([O-])c1ccc(Cl)c([N+](=O)[O-])c1 [CDNB],conventional GST assay (specific activity),GST3 [1],"the activity of GST3 towards 1-chloro-2,4-dinitrobenzene (CDNB)"
COc1cc(C(=O)C(CO)SC[C@H](NC(=O)CC[C@H](N)C(=O)O)C(=O)NCC(=O)O)ccc1O (stereo partly drawn) [GS-GHP],chiral HPLC of glutathione removal to GHP,GST3 [2],the removal of glutathione from both glutathione conjugates of GHP produced by GST4 and GST5
same,chiral HPLC of glutathione removal to GHP,GST6,the removal of glutathione from both glutathione conjugates of GHP produced by GST4 and GST5
GST5 (Novosphingobium sp. MBES04),Km,[3],290 µM
same,kcat,[3],0.0583 s⁻¹
same,kcat/Km,[3],200 M⁻¹ s⁻¹
same,Km,[4],780 µM
same,kcat,[4],0.158 s⁻¹
same,kcat/Km,[4],200 M⁻¹ s⁻¹
SDR3 (Novosphingobium sp. MBES04),Km,[5]; [8],1500 µM
same,kcat,[5]; [8],0.065 s⁻¹
same,kcat/Km,[5]; [8],41.7 M⁻¹ s⁻¹
SDR5 (Novosphingobium sp. MBES04),Km,[5]; [9],1100 µM
same,kcat,[5]; [9],23.3 s⁻¹
same,kcat/Km,[5]; [9],21700 M⁻¹ s⁻¹
"GST4 (Novosphingobium sp. MBES04) (protein, N-terminal His6 tag (pRSET A), E. coli BL21(DE3), His-tag resin purified) MLTLYSFGPGANSLKPLLALYEKGLEFTPRFVDPTKFEHHEEWFKKINPRGQVPALDHDGNVITESTVICEYLEDAFPDAPRLRPTDPVQIAEMRVWTKWVDEYFCWCVSTIGWERGIGPMARALSDEEFEEKVKRIPIPEQQAKWRSARAGFPKEVLDEEMRKIRVSIDRLEKRLSESTWLAGEDYTLADICNFAIANGMEKGFDDIVNTAATPNLVAWIERINARPACIEMFAKSKSEFAARKPFAKSEEQAQA",Km,purified protein [6],550 µM
same,kcat,purified protein [6],0.3 s⁻¹
same,kcat/Km,purified protein [6],533 M⁻¹ s⁻¹
same,Km,purified protein [7],470 µM
same,kcat,purified protein [7],0.75 s⁻¹
same,kcat/Km,purified protein [7],1580 M⁻¹ s⁻¹
